Assay results reported in publication PMC11659472 (Communications Biology, 2024).

Molecular target: the molecule itself
Assay: cryo-EM structure

B1: Roseospirillum parvum LH1 αβ-polypeptide pair (complex)
chain 1: not shown
chain 2: MATTENVTSSTGLTEAEAKEFHAVYSQSAAGFLAVCAVAHVLAWMWRPFWPGAEGWVMDTAQNLTFLA
stoichiometry N: 16
